The values that follow come from patent US20140072558A1 (ANTIBODY AND RECEPTOR THERAPEUTICS, published 2014).

B1: DLK1A04 (scFv, V domains shown)
VH: QVQLVESGAEVKKPGASVKVSCKASGYTFKDYAIHWVRQAPGQRLEWMGWINPGSGNTKYSHNFEGRVILTRDASANTAYLELPSLRSEDTAVYYCARSVSAYGSNYFDPWGQGTLITVSS
VL: DIQMTQSPSSLSASVGDRVTITCQASQDISNYLNWYQQKPGKAPKLLIYSTSNLQSGVPSRFSGSGSGTDFTLTISSLQPEDFATYYCQQLNSYPLTFGGGTKVDIK
notes: Monoclonal scFv on phage; VH1-3, L8
B2: DLK1-Fc fusion protein (Fc fusion)
chain: ECFPACNPQNGFCEDDNVCRCQPGWQGPLCDQCVTSPGCLHGLCGEPGQCICTDGWDGELCDRDVRACSSAPCANNGTCVSLDDGLYECSCAPGYSGKDCQKKDGPCVINGSPCQHGGTCVDDEGRASHASCLCPPGFSGNFCEIVANSCTPNPCENDGVCTDIGGDFRCRCPAGFIDKTCSRPVTNCASSPCQNGGTCLQHTQVSYECLCKPEFTGLTCVKKRALSPQQVTRLPSGYGLAYRLTPGVHELPVQQPEHRILKVSMKELNKKTPLLTEG
notes: Water-soluble DLK1 joined to a human antibody Fc region; also called DLK1-Fc-FITC; not shown: human antibody Fc region
B3: ACVR1A-Fc (Fc fusion, UniProt Q04771 21-123, looked up)
chain: MEDEKPKVNPKLYMCVCEGLSCGNEDHCEGQQCFSSLSINDGFHVYQKGCFQVYEQGKMTCKTPPSPGQAVECCQGDWCNRNITAQLPTKGKSFPGTQNFHLE
notes: Control protein; not shown: Fc
B4: activin A (ligand, UniProt P08476 311-426, looked up)
chain: GLECDGKVNICCKKQFFVSFKDIGWNDWIIAPSGYHANYCEGECPSHIAGTSGSSLSFHSTVINHYRMRGHSPFANLKSCCVPTKLRPMSMLYYDDGQNIIKKDIQNMIVEECGCS
notes: also called ligand of ACVR2B
B5: DLK1A05 (scFv, V domains shown)
VH: QMQLVESGGGLVQPGRSLRLSCAASGFTFDEHAMHWVRQAPGKGLEWVSGINWNSGKTGYADSVKGRFTISRDNGKNSLYLQMNSLRAEDTAVYYCAKSGGYGGNTNWYFDLWGRGTLVTVSS
VL: QFVLTQPPSVSGAPGQNVTISCIGTSSNIGVGYDVHWYQQVPGTAPKLLVYGNNNRPSGVPDRFSGSKSGTSASLAITGLQAEDEADYYCQSYDSRLGVVFGGGTKLTVL
notes: Monoclonal scFv on phage; VH3-9, V1-13
B6: DLK1H06 (scFv, V domains shown)
VH: QVQLVQSGGGLIQPGGSLRLSCAASGFTFSLYGMSWVRQAPGKGLEWVSSIPGSGTRTHYADSVKGRFTISRDNSKNTLFLQMNSLRAEDTAVYYCAKSTAYLFDYWGPGTLVTVSS
VL: DIQMTQSPATLSLSPGERATLSCRASQSIRHYLAWYQQKPGQAPRLLIHGASSRATGIPDRFSGSGSGTDFTLTISRLEPEDFAVYYCQHYGSPLHSFGPGTKVEIK
notes: Monoclonal scFv on phage; VH3-23, A27
B7: DLK1B09 (scFv, V domains shown)
VH: QMQLVESGGRLVRPGGSLRLSCAASGFPFTSYAMNWVRQTPGKGLEWVSTITATSGKTYYADSVKGRFTISRDNSRNTLFLQMNSLRAEDTAVYYCVRGESCSGGACSDFDYWGQGALVTVSS
VL: QLVLTQPASVSGSPGQSVTISCTGTSSDIGRYNRVSWYQHHPGKAPKLILNDVTTRPSGFSNRFSGSKSGNTASLTISGLQAEDEADYSCGSYAGSYTYVFGTGTKVTVL
notes: Monoclonal scFv on phage; VH3-23, V1-4; also called B09 (phage clone)
B8: DLK1H12 (scFv, V domains shown)
VH: QVQLVQSGGGLVKPGGSLRLSCAASEFTFSDYYMSWVRQAPGKGLEWLSYISGSGITTYYADSVKGRFTISRDNGKKSLYLEMNSLRAEDTAVYYCARLQGHCSGGACSNWFDAWGQGTLITVSS
VL: DIQMTQSPSSLSASVGDRLTITCRASQSILTYLNWYQQKPGKAPKLLIYAASSLQRGVPSRFSGSGSGTDFTLTISGLQPEDFATYYCQQGYGTPYTFGQGTKVDIK
notes: Monoclonal scFv on phage; VH3-11, O12
B9: ACVR2B-Fc (Fc fusion, UniProt Q13705 19-137, looked up)
chain: SGRGEAETRECIYYNANWELERTNQSGLERCEGEQDKRLHCYASWRNSSGTIELVKKGCWLDDFNCYDRQECVATEENPQVYFCCCEGNFCNERFTHLPEAGGPEVTYEPPPTAPTLLT
notes: extracellular domain; Prepared by attaching Fc to an extracellular part of ACVR2B; not shown: Fc
B10: DLK1A10 (scFv, V domains shown)
VH: QVQLVESGGGLVQPGRSLRLSCAASGFTFDDYAMHWVRQAPGKGLEWVSGISWNSGSIGYADSVKGRFTISRDNAKNSLYLQMNSLRAEDTAVYYCARGPGLATGKGYADYWGQGTLVTVSS
VL: DIQMTQSPSSVSASVGDRVTITCRASQRISSWLAWYQQKPGRAPKLLIHSASTLHNGVPSRFSGSASGTDFTLTISSLQPEDYAIYYCQQGHSFPYTFGQGTKLEIK
notes: Monoclonal scFv on phage; VH3-9

The target of test [1] is B2. As to the kind of experiment: scFv-phage ELISA; OD on DLK1 divided by OD on a-myc. (In an ELISA, binding on a coated surface is turned into a signal by an enzyme label.)
Test [2] has as its target T1, activin receptor type II B (ACVR2B) expressed in cells (UniProt Q13705 19-512, limits assumed).
T1 construct: whole, on cells; also called ACVR2B-overexpressed cell line
Description: flow cytometry, 1 ug DLK1-Fc-FITC on 293E cells. The method, then: To confirm binding between water-soluble DLK1 and ACVR2B on actual cells, an experiment was performed using flow cytometry. The experiment was performed using CantoII (BD), and an experiment method was summarized as follows. […] The harvested cells were washed with cold DPBS twice, 1 μg of DLK1-Fc-FITC was added to react at 4° C. for 2 hours. DLK1-Fc-FITC used in the reaction was manufactured using a protein FITC labeling kit (Pierce). After the reaction, washing with 1% PBA (1% BSA in DPBS) buffer was performed, a degree of binding was determined by flow cytometry, and the results are shown in FIG. 15. In addition, the cells used above were subjected to western blotting to confirm the expression of ACVR2B (FIG. 14).

The test “activin A” addresses B4. As to the kind of experiment: ELISA: activin A coated 50 ng/ml. The method, then: To examine whether water-soluble DLK1 competitively bind to the ACVR2B receptor with activin A, enzyme immunoassay was performed. 50 ng/ml of activin A was coated and reacted with ACVR2B-Fc and FLAG-DLK1, and then the binding was detected. Here, ACVR2B was fixed to a concentration of 2 nM, FLAG-DLK1 was treated to have a concentration of 1 to 16 nM, and then a degree of competitive binding was measured. As controls, Fc and ACVR1A-Fc not binding to activin A were used.

For test [3], the target named is B2. Description: ELISA: activin A coated, DLK1-Fc added.
The target of test [4] is T2, FLAG-tagged water-soluble DLK1 (Homo sapiens (Human), UniProt P80370 25-302).
T2 construct: also called FLAG-DLK1; not shown: FLAG tag
T2 sequence: B2 chain
As to the kind of experiment: ELISA. The method, then: (§1) Binding between ACVR2B and water-soluble DLK1 was confirmed by enzyme immunoassay (ELISA). To this end, 1 μg/ml of FLAG-tagged water-soluble DLK1 was coated on an immunoplate (Nunc) at 4° C. for 16 hours. Here, as a control for detecting non-specific binding, BSA was used. The coated plate was washed with PBST (0.05% Tween 20) three times, and blocked with 5% skim milk PBST. ACVR2B-Fc prepared by attaching Fc to an extracellular part of ACVR2B was subjected to serial dilution, and reacted at room temperature for 1 hour. After the reaction, the cells were washed with PBST (0.05% Tween 20) three times, and […] (1:5000) was incubated for 1 hour to measure a binding degree. After the reaction, the cells were washed with PBST (0.05% Tween 20) three times, a color reaction was performed using TMB (Sigma), and 2.5 M H₂SO₄ was added to stop the reaction. And then optical density was measured at 450 nm.

In the next test the target is BSA (UniProt P02769 25-607). Description: ELISA: BSA coated as control for non-specific binding, ACVR2B-Fc serially diluted, anti-human IgG-HRP. The method, then: as §1
Sequence of BSA (P02769 25-607 limits assumed): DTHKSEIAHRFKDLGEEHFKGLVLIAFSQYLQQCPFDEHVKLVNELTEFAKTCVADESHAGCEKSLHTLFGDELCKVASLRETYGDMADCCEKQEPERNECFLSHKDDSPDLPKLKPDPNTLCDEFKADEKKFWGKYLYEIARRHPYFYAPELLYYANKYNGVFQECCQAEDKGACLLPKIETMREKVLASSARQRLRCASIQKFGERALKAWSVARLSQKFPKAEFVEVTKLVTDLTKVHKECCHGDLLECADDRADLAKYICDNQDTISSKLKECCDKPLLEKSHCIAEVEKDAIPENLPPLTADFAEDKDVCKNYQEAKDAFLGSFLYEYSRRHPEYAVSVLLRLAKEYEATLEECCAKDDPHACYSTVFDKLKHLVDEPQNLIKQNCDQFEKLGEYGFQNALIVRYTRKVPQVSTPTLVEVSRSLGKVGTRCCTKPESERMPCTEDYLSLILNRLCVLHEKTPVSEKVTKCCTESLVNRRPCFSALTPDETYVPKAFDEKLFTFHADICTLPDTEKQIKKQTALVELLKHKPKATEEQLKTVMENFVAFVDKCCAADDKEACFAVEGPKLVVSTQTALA

With B1, in the test with DLK1-Fc fusion protein [1], the Ratio came to 6.15.
As for B2, the binding result in test [2] was “binds”.
Consider B3, for which the binding result in the test with activin A is on record as “no binding”.
On to B4, for which the binding result with DLK1-Fc fusion protein [3] is “no binding”.
Turning to B5, the Ratio with DLK1-Fc fusion protein [1] is 3.81.
On to B6, for which, in the test with DLK1-Fc fusion protein [1], the Ratio stood at 2.47.
On the same count and under the same terms, as for B7, the figure is 25.3; as for B8, 4.75.
B9: the binding result in test [4] is on record as “binds”; with BSA, “no binding”.
B10: the Ratio with DLK1-Fc fusion protein [1] worked out at 2.21.
